Data: the supplement of paper PMC11246515
± gives the standard deviation of the averaged measurements.

Assay: total protein half-life in vivo (active degradation + dilution); higher = more stable protein
[1] = E. coli NCM3722 delta-clpP delta-lon delta-hslV, growth: N-lim chemostat, doubling time 6 h
[2] = E. coli NCM3722 delta-clpP, growth: N-lim chemostat, doubling time 6 h
[3] = E. coli NCM3722 delta-hslV, growth: N-lim chemostat, doubling time 6 h
[4] = E. coli NCM3722 delta-lon, growth: N-lim chemostat, doubling time 6 h
[5] = E. coli NCM3722 delta-smpB, growth: N-lim chemostat, doubling time 6 h
[6] = wild type E. coli NCM3722, growth: C-lim chemostat, doubling time 3 h
[7] = wild type E. coli NCM3722, growth: C-lim chemostat, doubling time 6 h
[8] = wild type E. coli NCM3722, growth: C-lim chemostat, doubling time 12 h
[9] = wild type E. coli NCM3722, growth: N-lim chemostat, doubling time 6 h
[10] = wild type E. coli NCM3722, growth: N-lim chemostat, doubling time 12 h
[11] = wild type E. coli NCM3722, growth: P-lim chemostat, doubling time 6 h
[12] = wild type E. coli NCM3722, growth: P-lim chemostat, doubling time 12 h

Row | Sequence | total protein half-life in vivo [1] | total protein half-life in vivo [2] | total protein half-life in vivo [3] | total protein half-life in vivo [4] | total protein half-life in vivo [5] | total protein half-life in vivo [6] | total protein half-life in vivo [7] | total protein half-life in vivo [8] | total protein half-life in vivo [9] | total protein half-life in vivo [10] | total protein half-life in vivo [11] | total protein half-life in vivo [12]
1 | MKAAAKTQKPKRQEEHANFISWRFALLCGCILLALAFLLGRVAWLQVISPDMLVKEGDMRSLRVQQVSTSRGMITDRSGRPLAVSVPVKAIWADPKEVHDAGGISVGDRWKALANALNIPLDQLSARINANPKGRFIYLARQVNPDMADYIKKLKLPGIHLREESRRYYPSGEVTAHLIGFTNVDSQGIEGVEKSFDKWLTGQPGERIVRKDRYGRVIEDISSTDSQAAHNLALSIDERLQALVYRELNNAVAFNKAESGSAVLVDVNTGEVLAMANSPSYNPNNLSGTPKEAMRNRTITDVFEPGSTVKPMVVMTALQRGVVRENSVLNTIPYRINGHEIKDVARYSELTLTGVLQKSSNVGVSKLALAMPSSALVDTYSRFGLGKATNLGLVGERSGLYPQKQRWSDIERATFSFGYGLMVTPLQLARVYATIGSYGIYRPLSITKVDPPVPGERVFPESIVRTVVHMMESVALPGGGGVKAAIKGYRIAIKTGTAKKVGPDGRYINKYIAYTAGVAPASQPRFALVVVINDPQAGKYYGGAVSAPVFGAIMGGVLRTMNIEPDALTTGDKNEFVINQGEGTGGRS [P0AD68] | 2.8 ± 0.043 h | 2.39 ± 0.032 h | 2.53 ± 0.39 h | 2.31 ± 0.099 h | 2.77 ± 0.059 h | 1.75 ± 0.11 h | 2.35 ± 0.13 h | 2.75 ± 0.35 h | 2.61 ± 0.035 h | 3.15 ± 0.18 h | 3.311 ± 0.027 h | 4.83 ± 0.71 h
2 | MKAFNKLFSLVVASVLVFSLAGCGDKEESKKFSANLNGTEIAITYVYKGDKVLKQSSETKIQFASIGATTKEDAAKTLEPLSAKYKNIAGVEEKLTYTDTYAQENVTIDMEKVDFKALQGISGINVSAEDAKKGITMAQMELVMKAAGFKEVK | 5.1 h | 5.39 h | 5.31 h | 5.76 ± 0.26 h | 4.61 ± 0.12 h | 2.68 h | 4.07 ± 0.38 h | 7.55 h | 5.76 ± 0.11 h | 9.71 ± 1.6 h | 5.3 h | –
3 | MKAIDNQIRNISSSHQDKHSDKVNSHQHHGKVDKTHRAKIVEFDKLDNDSQIDNDFGLHIIYFLQHGHWKVNDRSHQMEKVWFYNSEPSIDIQEYNRFADNTTDTFIFTIIPDNNHVLKLSSPITVTVECKGGYYFINSSGDKSDIIYKVDGLSIIARNFFTLLSGNFKPDWRWDVSKETFTKEKFDSYVKSVFSKIDFYKQCGVINPQNANTAYFGDTDGRVGAVLYALLVSGHIGIREKGWSLLCELLKHEEMASSAYKHKNNKVLYDLLNTRDMILNELHQHVFLKDDAITPCIFLGDHTGDRFSTIFGDKYILTLLNSMRNMEGNKDSRINKNVVVLAGNHEINFNGNYTARLANHKLSAGDTYNLIKTLDVCNYDSERQVLTSHHGIIRDEEKKCYCLGALQVPFNQMKNPTDPEELANIFNKKHKEHMDDPLFHLIRSNTLKPTPVYANYFDNTTDFRPARERIFICGETLKGEDPSKYIRQKYGHHGPGVDHNQQFDNGIMGLNSLKEARDKNNKIIYSSGLSCFQLH | – | 2.18 ± 0.21 h | 2.35 ± 0.097 h | 2.82 h | 2.53 h | 2.6 ± 0.029 h | 4.34 ± 0.27 h | 6 h | 2.27 ± 0.28 h | 3.75 h | 5.32 ± 0.097 h | 8.76 ± 0.24 h
4 | MKAKAILLASVLLVGCQSTGNVQQHAQSLSAAGQGEAAKFTSQARWMDDGTSIAPDGDLWAFIGDELKMGIPENDRIREQKQKYLRNKSYLHDVTLRAEPYMYWIAGQVKKRNMPMELVLLPIVESAFDPHATSGANAAGIWQIIPSTGRNYGLKQTRNYDARRDVVASTTAALNMMQRLNKMFDGDWLLTVAAYNSGEGRVMKAIKTNKARGKSTDFWSLPLPQETKQYVPKMLALSDILKNSKRYGVRLPTTDESRALARVHLSSPVEMAKVADMAGISVSKLKTFNAGVKGSTLGASGPQYVMVPKKHADQLRESLASGEIAAVQSTLVADNTPLNSRVYTVRSGDTLSSIASRLGVSTKDLQQWNKLRGSKLKPGQSLTIGAGSSAQRLANNSDSITYRVRKGDSLSSIAKRHGVNIKDVMRWNSDTANLQPGDKLTLFVKNNNMPDS [P0AEZ7] | 3.87 ± 0.74 h | – | – | – | – | – | – | – | – | – | – | –
5 | MKALTYHGPHHVQVENVPDPGVEQADDIILRITATAICGSDLHLYRGKIPQVKHGDIFGHEFMGEVVETGKDVKNLQKGDRVVIPFVIACGDCFFCRLQQYAACENTNAGKGAALNKKQIPAPAALFGYSHLYGGVPGGQAEYVRVPKGNVGPFKVPPLLSDDKALFLSDILPTAWQAAKNAQIQQGSSVAVYGAGPVGLLTIACARLLGAEQIFVVDHHPYRLHFAADRYGAIPINFDEDSDPAQSIIEQTAGHRGVDAVIDAVGFEAKGSTTETVLTNLKLEGSSGKALRQCIAAVRRGGIVSVPGVYAGFIHGFLFGDAFDKGLSFKMGQTHVHAWLGELLPLIEKGLLKPEEIVTHYMPFEEAARGYEIFEKREEECRKVILVPGAQSAEAAQKAVSGLVNAMPGGTI | 5.38 ± 0.18 h | – | 4.446 ± 0.011 h | 4.83 ± 0.24 h | 3.69 ± 2.5 h | – | 0.447 h | 10.2 h | 4.75 ± 0.35 h | 7.88 ± 0.2 h | 4.4 ± 0.32 h | 13.1 ± 3.3 h
6 | MKAVSRVHITPHMHWDREWYFTTEESRILLVNNMEEILCRLEQDNEYKYYVLDGQTAILEDYFAVKPENKDRVKKQVEAGKLIIGPWYTQTDTTIVSAESIVRNLMYGMRDCLAFGEPMKIGYLPDSFGMSGQLPHIYNGFGITRTMFWRGCSERHGTDKTEFLWQSSDGSEVTAQVLPLGYAIGKYLPADENGLRKRLDSYFDVLEKASVTKEILLPNGHDQMPLQQNIFEVMDKLREIYPQRKFVMSRFEEVFEKIEAQRDNLATLKGEFIDGKYMRVHRTIGSTRMDIKIAHARIENKIVNLLEPLATLAWTLGFEYHHGLLEKMWKEILKNHAHDSIGCCCSDKVHREIVARFELAEDMADNLIRFYMRKIADNMPQSDADKLVLFNLMPWPREEVINTTVRLRASQFNLRDDRGQPVPYFIRHAREIDPGLIDRQIVHYGNYDPFMEFDIQINQIVPSMGYRTLYIEANQPGNVIAAKSDAEGILENAFWQIALNEDGSLQLVDKDSGVRYDRVLQIEESSDDGDEYDYSPAKEEWVITAANAKPQCDIIHEAWQSRAVIRYDMAVPLNLSERSARQSTGRVGVVLVVTLSHNSRRIDVDINLDNQADDHRLRVLVPTPFNTDSVLADTQFGSLTRPVNDSAMNNWQQEGWKEAPVPVWNMLNYVALQEGRNGMAVFSEGLREFEVIGEEKKTFAITLLRGVGLLGKEDLLLRPGRPSGIKMPVPDSQLRGLLSCRLSLLSYTGTPTAAGVAQQARAWLTPVQCYNKIPWDVMKLNKAGFNVPESYSLLKMPPVGCLISALKKAEDRQEVILRLFNPAESATCDATVAFSREVISCSETMMDEHITTEENQGSNLSGPFLPGQSRTFSYRLA | 6.07 h | – | – | – | 1.754 ± 0.011 h | – | – | – | – | 3.4 h | – | –
7 | MKCPVCHQGEMVSGIKDIPYTFRGRKTVLKGIHGLYCVHCEESIMNKEESDAFMAQVKAFRASVNAETVAPEFIVKVRKKLSLTQKEASEIFGGGVNAFSRYEKGNAQPHPSTIKLLRVLDKHPELLNEIR | 4.78 ± 0.28 h | 1.229 ± 0.0039 h | 1.01 h | 3.01 ± 0.085 h | 0.847 ± 0.046 h | 0.559 ± 0.062 h | 1.07 ± 0.12 h | 1.23 h | 0.993 h | 1.08 h | 1.13 h | 1.6 ± 0.84 h
8 | MKCSWREGNKIQLLENGEQYYPAVFKAIGEAQERIILETFIWFEDDVGKQLHAALLAAAQRGVKAEVLLDGYGSPDLSDEFVNELTAAGVVFRYYDPRPRLFGMRTNVFRRMHRKIVVIDARIAFIGGLNYSAEHMSSYGPEAKQDYAVRLEGPIVEDILQFELENLPGQSAARRWWRRHHKAEENRQPGEAQVLLVWRDNEEHRDDIERHYLKMLTQARREVIIANAYFFPGYRFLHALRKAARRGVRIKLIIQGEPDMPIVRVGARLLYNYLVKGGVQVFEYRRRPLHGKVALMDDHWATVGSSNLDPLSLSLNLEANVIIHDRHFNQTLRDNLNGIIAADCQQVDETMLPKRTWWNLTKSVLAFHFLRHFPALVGWLPAHTPRLAQVDPPAQPTMETQDRVETENTGVKP [P0AA84] | 5.09 ± 0.17 h | 4.47 ± 0.2 h | 3.731 ± 0.026 h | 4.02 ± 0.65 h | 3.99 ± 0.16 h | 2.78 ± 0.092 h | 5.37 ± 2.1 h | 5.9 ± 1.9 h | 3.75 ± 0.25 h | 6.19 ± 0.53 h | 5.17 ± 1.5 h | 9.94 ± 4.7 h
9 | MKDKVYKRPVSILVVIYAQDTKRVLMLQRRDDPDFWQSVTGSVEEGETAPQAAMREVKEEVTIDVVAEQLTLIDCQRTVEFEIFSHLRHRYAPGVTRNTESWFCLALPHERQIVFTEHLAYKWLDAPAAAALTKSWSNRQAIEQFVINAA [P0AFC0] | 3.93 h | > 8 h | – | 3.07 h | 2.07 h | – | > 8 h | 4.68 ± 0.41 h | 2.22 ± 0.26 h | 3.45 h | 2.75 ± 0.2 h | –
